Source: the supplement of paper PMC7877785
± gives the uncertainty stated by the source.

Assay: self-splicing fitness, log relative to wild type (ln ratio); higher = more splicing; Tetrahymena group I intron in knt gene, E. coli kanamycin selection, DiMSum; sequences stand for … in CUCUCU…GGAGGGAAAAGUUAUCAGGCAUGCACCUGGUAGCUAGUCUUUAAACCAAUAGAUUGCAUCGGUUUAAAAGGCAAGACCGUCAAAUUGCGGGAAAGGGGUCAACAGCCGUUCAGUACCAAGUCUCAGGGGAAACUUUGAGAUGGCCUUGCAAAGGGUAUGGUAAUAAGCUGACGGACAUGGUCCUAACCACGCAGCCAAGUCCUAAGUCAACAGAUCUUCUGUUGAUAUGGAUGCAGUUCACAGACUAAAUGUCGGUCGGGGAAGAUGUAUUCUUCUCAUAAGAUAUAGUCGGACCUCUCCUUAAUGGGAGCUAGCGGAUGAAGUGAUGCAACACUGGAGCCGCUGGGAACUAAUUUGUAUGCGAAAGUAUAUUGAUUAGUUUUGGAGUACUCGUGGUCG
Procedure, shortened: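 Colonies from six replicate transformations of E. coli BL21(DE3) were pooled and amplicon-sequenced on an Illumina HiSeq 2500. The library placed an intron with all eight P1ex-region nucleotides randomised inside the knt kanamycin-resistance gene on pET-22b(+), and cells grew overnight at 37°C or 30°C on LB agar with or without 25 μg/mL kanamycin (plus 100 μg/mL carbenicillin, 50 μM IPTG, 0.2% rhamnose). Fitness is the DiMSum error-weighted combination of wild-type-normalised replicate fold changes, kanamycin versus none.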

Row | Sequence | self-splicing fitness (ln) (30 °C) | self-splicing fitness (ln) (37 °C)
1 | AAUUAGCAAUAUUACGCCGC | -2.94 ± 0.36 | -1.66 ± 0.24
2 | CUCUAGCAAUAUUACGAUAA | -3.29 ± 0.27 | -2 ± 0.24
3 | UACUAGCAAUAUUACGAGCA | -0.343 ± 0.12 | 0.447 ± 0.15
4 | UAAAAGCAAUAUUACGAGAG | -3.35 ± 0.19 | -1.6 ± 0.13
5 | GCUUAGCAAUAUUACGCUAC | – | -3.24 ± 0.28
6 | AUUGAGCAAUAUUACGUGGG | – | -1.57 ± 0.19
7 | GUAGAGCAAUAUUACGGUAC | -1.54 ± 0.12 | 0.127 ± 0.14
8 | UUGGAGCAAUAUUACGGCAU | – | -1.76 ± 0.24
9 | GCGUAGCAAUAUUACGUUCA | -0.985 ± 0.11 | -0.728 ± 0.12
10 | UGAUAGCAAUAUUACGUGGA | -3.45 ± 0.3 | -2.23 ± 0.2
11 | GAAUAGCAAUAUUACGAUCU | 0.384 ± 0.078 | -0.286 ± 0.079
12 | UCCCAGCAAUAUUACGUGAC | -2.74 ± 0.15 | -3.06 ± 0.32
13 | UUAGAGCAAUAUUACGCUUA | -0.675 ± 0.099 | -0.447 ± 0.12
14 | AGUUAGCAAUAUUACGGAAG | -3.57 ± 0.3 | -3.07 ± 0.43
15 | GGGUAGCAAUAUUACGUCGA | -0.508 ± 0.14 | -0.243 ± 0.15
16 | GGGGAGCAAUAUUACGUCGC | – | -0.104 ± 0.44
17 | AUACAGCAAUAUUACGAAAC | – | -3.1 ± 0.24
18 | GCCCAGCAAUAUUACGUGUU | -0.583 ± 0.042 | -0.217 ± 0.054
19 | CGAUAGCAAUAUUACGGCAA | -2.65 ± 0.27 | -1.79 ± 0.22
20 | UGAGAGCAAUAUUACGUCGG | -2.21 ± 0.2 | -1.77 ± 0.31

Row | Sequence | self-splicing fitness (ln) (30 °C) | self-splicing fitness (ln) (37 °C)
21 | GACGAGCAAUAUUACGUUCC | -3.47 ± 0.23 | -2.65 ± 0.36
22 | UUAGAGCAAUAUUACGUCUU | -1.62 ± 0.097 | -0.85 ± 0.13
23 | ACCGAGCAAUAUUACGCUGC | -2.73 ± 0.16 | -2.5 ± 0.23
24 | UGGCAGCAAUAUUACGUCGG | -0.425 ± 0.097 | -0.268 ± 0.13
25 | GAGAAGCAAUAUUACGCAUA | -1.72 ± 0.13 | -1.01 ± 0.14
26 | GCUUAGCAAUAUUACGUACA | -1.38 ± 0.13 | -0.577 ± 0.14
27 | UACUAGCAAUAUUACGCGAU | -2.84 ± 0.18 | -2.5 ± 0.18
28 | ACAGAGCAAUAUUACGCAAU | -3.59 ± 0.32 | -2.42 ± 0.32
29 | UCGAAGCAAUAUUACGGAUC | -3.14 ± 0.23 | -2.64 ± 0.37
30 | CCUUAGCAAUAUUACGUGGC | -4.19 ± 0.31 | -2.88 ± 0.31
31 | AAAAAGCAAUAUUACGCGUG | -1.12 ± 0.064 | -1.18 ± 0.076
32 | CUCCAGCAAUAUUACGUGCA | -3.43 ± 0.17 | -2.32 ± 0.13
33 | CGAUAGCAAUAUUACGAAAG | -0.907 ± 0.089 | -0.699 ± 0.12
34 | GGUCAGCAAUAUUACGAGUU | -1.38 ± 0.068 | -0.17 ± 0.071
35 | AGUUAGCAAUAUUACGCCUU | -0.974 ± 0.23 | -0.383 ± 0.33
36 | UAGUAGCAAUAUUACGGCCU | -0.563 ± 0.15 | -0.218 ± 0.24
37 | AGCUAGCAAUAUUACGGUCA | -0.312 ± 0.067 | 0.192 ± 0.083
38 | UUGCAGCAAUAUUACGCCAA | -1.25 ± 0.19 | 0.228 ± 0.24
39 | CUGGAGCAAUAUUACGACUG | 0.202 ± 0.15 | 0.00578 ± 0.21
